The values below come from patent US20230183373A1 (MINERVA BIOTECHNOLOGIES, published 2023).

The labels stand for the following.
B6: PSMGFR minus 10 amino acids from the C-terminus (peptide)
peptide: GTINVHDVETQFNQYKTEAASRYNLTISDVSVSDV
notes: also called C-10; C-10 PSMGFR

In assay [1] the target is T1, PSMGFR peptide (Primary Sequence of the MUC1 Growth Factor Receptor).
T1 construct: Synthetic peptide; also called MUC1* peptide; MUC1* PSMGFR peptide
T1 peptide: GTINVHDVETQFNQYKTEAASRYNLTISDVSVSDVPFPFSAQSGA
Briefly: ELISA, surface coated with PSMGFR peptide (FIG. 5).

In assay [2] the target is T1, PSMGFR peptide (Primary Sequence of the …). As to the kind of experiment: ELISA on PSMGFR (FIG. 21A).
Assay [3] shares this target. As to the kind of experiment: ELISA on immobilised PSMGFR (FIG. 2C). For orientation: An ELISA detects its analyte on a solid surface through an enzyme-linked reagent.
Assay [4] addresses T2, PSMGFR minus 10 amino acids from the N-terminus.
T2 construct: also called N-10; N-10 PSMGFR
T2 peptide: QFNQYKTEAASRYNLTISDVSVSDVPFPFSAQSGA
As to the kind of experiment: selection screens (FIG. 3A-C cited).

In assay [5] the target is B6. As to the kind of experiment: ELISA on immobilised N-10 and C-10 peptides (FIG. 2E).
The target in assay [6] is T1, PSMGFR peptide (Primary Sequence of the …). As to the kind of experiment: ELISA on immobilised PSMGFR, N-10 and C-10 (FIG. 22A).
Assay [7] shares this target. As to the kind of experiment: ELISA on immobilised PSMGFR (FIG. 2B).
A further assay has as its target T3, dimeric NME1 (human, UniProt P15531 1-152, limits assumed).
T3 construct: Used in dimer form; also called NM23-H1 dimers; dimeric NM23-H1
Briefly: ELISA on immobilised C-10 peptide (FIG. 2D).

A further assay addresses T4, NME7-AB (human, UniProt Q9Y5B8 92-376, limits assumed).
T4 construct: also called NM23-H7
T4 sequence: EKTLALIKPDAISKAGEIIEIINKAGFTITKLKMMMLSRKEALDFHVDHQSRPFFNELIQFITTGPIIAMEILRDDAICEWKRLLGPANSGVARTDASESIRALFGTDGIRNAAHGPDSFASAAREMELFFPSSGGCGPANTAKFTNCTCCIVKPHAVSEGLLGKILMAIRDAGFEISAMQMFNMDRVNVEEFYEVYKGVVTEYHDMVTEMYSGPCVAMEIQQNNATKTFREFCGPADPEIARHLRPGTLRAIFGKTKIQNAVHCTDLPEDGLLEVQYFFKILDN
Briefly: ELISA on immobilised C-10 peptide (FIG. 2A).

T3 sequence (P15531 whole entry): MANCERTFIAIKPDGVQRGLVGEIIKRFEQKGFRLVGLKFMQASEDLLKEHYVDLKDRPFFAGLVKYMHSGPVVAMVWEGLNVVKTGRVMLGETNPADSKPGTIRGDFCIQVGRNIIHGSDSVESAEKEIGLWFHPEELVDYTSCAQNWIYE

B1: humanized MN-C2 scFv (scFv, V domains shown)
VH: EVQLVESGGGLVKPGGSLRLSCAASGFTFSGYAMSWVRQAPGKGLEWVSTISSGGTYIYYPDSVKGRFTISRDNAKNSLYLQMNSLRAEDTAVYYCARLGGDNYYEYFDVWGKGTTVTVSS
VL: DIVLTQSPASLAVSPGQRATITCRASKSVSTSGYSYMHWYQQKPGQPPKLLIYLASNLESGVPARFSGSGSGTDFTLTINPVEANDTANYYCQHSRELPFTFGGGTKVEIKR
notes: also called huMN-C2 scFv; hu MN-C2 scFv; not shown: Linker; which one was te; 6xHis tag (detected with Anti-Penta-His)
Usually EC50 stands for the concentration at which the effect is half-maximal. Lower therefore signals a more potent agent. Take B1: the EC50 in assay [1] was approximately 333 nM.

B2: hu MN-E6 scFv-Fc-Y407R-hingeless (Fc fusion)
chain: AAQPAEVQLVESGGGLVKPGGSLRLSCAASGFTFSRYGMSWVRQAPGKRLEWVSTISGGGTYIYYPDSVKGRFTISRDNAKNTLYLQMNSLRAEDTAVYYCTRDNYGRNYDYGMDYWGQGTLVTVSSGGGGSGGGGSGGGGSEIVLTQSPATLSLSPGERATLTCSATSSVSYIHWYQQRPGQSPRLLIYSTSNLASGIPARFSGSGSGSDYTLTISSLEPEDFAVYYCQQRSSSPFTFGSGTKVEIKAPELLGGPSVFLFPPKPKDTLMISRTPEVTCVVVDVSHEDPEVKFNWYVDGVEVHNAKTKPREEQYNSTYRVVSVLTVLHQDWLNGKEYKCKVSNKALPAPIEKTISKAKGQPREPQVYTLPPSREEMTKNQVSLTCLVKGFYPSDIAVEWESNGQPENNYKTTPPVLDSDGSFFLRSKLTVDKSRWQQGNVFSCSVMHEALHNHYTQKSLSLSPGK
notes: The construct derives from the pSECTag2 E6 scFv-Fc, so it carries the leader and AAQPA before the scFv; also called MN-E6 scFv-Fc with deleted hinge and Y407R
B2: the binding result in assay [2] is recorded as “binds”.

B3: mouse monoclonal antibody MN-E6 (antibody, V domains shown)
VH: EVKVVESGGDLVKPGGSLKLSCVVSGFTFSRYGMSWVRQTPGKRLEWVATISGGGTYIYYPDSVKGRFTISRDNAKNTLYLQMSSLKSEDTAMYHCTRDNYGRNYDYGMDYWGQGTSVTVSS
VL: QIVLTQSPAIMSASPGEEVTLTCSATSSVSYIHWFQQRPGTSPKLWIYSTSNLASGVPVRFSGSGYGTSYSLTISRMEAEDAATYYCQQRSSSPFTFGSGTKLEIK
notes: Mouse monoclonal IgG; the constant regions are not; also called parent mouse MN-E6 antibody
Consider B3, for which the binding result in assay [3] and in assay [4] was “binds” in each case.

B4: mouse monoclonal antibody MN-C3 (antibody, V domains shown)
VH: QVQLQQSGPELVRPGVSVKISCKGSGYRFTDYAMNWVKQSHAKSLEWIGVISTFSGNTNFNQKFKGKATMTVDKSSSTAYMELARLTSEDSAMYYCARSDYYGPYFDYWGQGTTLTVSS
VL: DVLMTQTPLSLPVSLGDQASISCRSSQTIVHSNGNTYLEWYLQKPGQSPKLLIYKVSNRFSGVPDRFSGSGSGTDFTLKINRVEAEDLGVYYCFQGSHVPFTFGSGTKLEIK
notes: Mouse monoclonal IgG
Consider B4, for which the binding result in assay [5] and in assay [6] was “binds” in each case.

B5: mouse monoclonal antibody MN-C2 (antibody, V domains shown)
VH: EVQLEESGGGLVKPGGSLKLSCAASGFTFSGYAMSWVRQTPEKRLEWVATISSGGTYIYYPDSVKGRFTISRDNAKNTLYLQMSSLRSEDTAMYYCARLGGDNYYEYFDVWGAGTTVTVSS
VL: DIVITQSTASLGVSLGQRATISCRASKSVSTSGYSYMHWYQQRPGQPPKLLIYLASNLESGVPARFSGSGSGTDFTLNIHPVEEEDAATYYCQHSRELPFTFGGGTKLEIKR
notes: Mouse monoclonal IgG; the printed entries run a few residues into the constant regions
As for B5, the binding result in assay [4] and in assay [7] was “binds” in each case. In the case of B6, the binding result with dimeric NME1 and in the assay with NME7-AB was “no binding” throughout.
